The text below walks through data of paper PMC8749958 (Science translational medicine, 2021).

This assay has as its target T1, recombinant human CD93 protein (R&D Systems) (human, UniProt Q9NPY3 24-580).
T1 sequence (looked up): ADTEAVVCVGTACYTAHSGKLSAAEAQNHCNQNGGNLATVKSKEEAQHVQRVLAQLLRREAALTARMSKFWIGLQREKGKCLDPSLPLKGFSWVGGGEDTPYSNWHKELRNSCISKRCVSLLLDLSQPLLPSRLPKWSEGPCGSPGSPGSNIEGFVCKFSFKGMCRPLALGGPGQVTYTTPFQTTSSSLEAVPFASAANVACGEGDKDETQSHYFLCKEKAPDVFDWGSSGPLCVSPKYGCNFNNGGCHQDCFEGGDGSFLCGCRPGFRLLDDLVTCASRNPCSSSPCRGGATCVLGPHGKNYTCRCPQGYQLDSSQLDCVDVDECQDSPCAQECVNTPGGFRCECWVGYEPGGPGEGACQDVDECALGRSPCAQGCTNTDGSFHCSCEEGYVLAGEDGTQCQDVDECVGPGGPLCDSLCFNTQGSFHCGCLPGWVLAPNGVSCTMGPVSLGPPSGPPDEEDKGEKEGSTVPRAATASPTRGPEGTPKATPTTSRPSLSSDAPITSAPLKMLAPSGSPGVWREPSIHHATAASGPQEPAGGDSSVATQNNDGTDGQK
Briefly: MST.

B1: IGFBP7 protein (R&D Systems), labelled for microscale thermophoresis (ligand, human, UniProt Q16270 27-282, looked up)
chain: SSSDTCGPCEPASCPPLPPLGCLLGETRDACGCCPMCARGEGEPCGGGGAGRGYCAPGMECVKSRKRRKGKAGAAAGGPGVSGVCVCKSRYPVCGSDGTTYPSGCQLRAASQRAESRGEKAITQVSKGTCEQGPSIVTPPKDIWNVTGAQVYLSCEVIGIPTPVLIWNKVKRGHYGVQRTELLPGDRDNLAIQTRGGPEKHEVTGWVLVSPLSKEDAGEYECHASNSQGQASASAKITVVDALHEIPVKKGEGAEL
modifications: fluorescent dye RED-tris-NTA 2nd Generation (Monolith His-Tag Labeling kit)
Take B1: the Kd amounted to 53.1 ± 20.2 nM.

As a reminder, the Kd is the concentration at which binding is half-saturated.
